In US20260085114A1 (KYINNO BIOTECHNOLOGY, published 2026) one finds FACS result and EC50 data, which are given here for one molecule.

In experiment [1] the target is T1, human GPRC5B, on 293T cells (human, UniProt Q9NZH0 29-403).
T1 construct: whole, on cells; also called 293T-GPRC5B
Kind of experiment: FACS on 293T-GPRC5B cells, antibody at 2 µg/mL; control tubes 8.55 and 8.26. As for the experimental part: (§1) 100 μl of FACS buffer was then added to each FACS tube for resuspension. 5 μl of PE-labeled, anti-murine Fc tagged secondary antibody (Biolegend, catalog number 409304) was added according to instructions, and incubated at 4° C. in the dark for 30 mins. Then 1 ml of FACS buffer was added, and centrifuged at 1200 rpm at room temperature for 5 mins. The supernatant was discarded followed by washing three times.
(§2) The experimental process was as described in Example 4, cells expressing other members of G protein-coupled receptor class C group 5 as follows were used: 293T cells expressing human GPRC5A, 293T-GPRC5A (Kyinno, catalog number KC-1888), 293T cells expressing human GPRC5B, 293T-GPRC5B (Kyinno, catalog number KC-1854), and 293T cells expressing human GPRC5C, 293T-GPRC5C (Kyinno, catalog number KC-1889). […] Control tube 1 (no antibody and secondary antibody, adding only cell suspension) and Control tube 2 (no antibody, adding only cell suspension and secondary antibody) were included.

Experiment [2] has as its target T2, monkey (cyno) GPRC5D, on 293T cells (monkey (cyno)).
T2 construct: whole, on cells; also called monkey GPRC5D
Briefly: FACS on 293T cells expressing monkey GPRC5D. From the text:
According to the method described in Example 4, the binding between the culture supernatant of the hybridoma cells and monkey GPRC5D was detected, except that the human GPRC5D-expressing cells were replaced with 293T cells expressing monkey GPRC5D (Kyinno, catalog number KC-1586).

The target of experiment [3] is T3, human GPRC5C, on 293T cells (human, UniProt Q9NQ84 24-441).
T3 construct: whole, on cells; also called 293T-GPRC5C
Kind of experiment: FACS on 293T-GPRC5C cells, antibody at 2 µg/mL; control tubes 8.86 and 8.73. As for the experimental part: as §1, §2

Experiment [4] has as its target T2, monkey (cyno) GPRC5D, on 293T cells. Kind of experiment: FACS on 293T cells expressing monkey (cyno) GPRC5D (run with 24F5(hz)). As for the experimental part:
as §1
(§3) The experimental process was as described in Example 4. […] Control tube 1 (no antibody and secondary antibody, adding only cell suspension) and Control tube 2 (no antibody, adding only cell suspension and secondary antibody) were included.

Experiment [5] has the same target. Briefly: FACS on 293T cells expressing monkey (cyno) GPRC5D (run with 9D7(hz)). As for the experimental part: as §1, §3
For experiment [6] the target is unchanged. Briefly: FACS on 293T cells expressing monkey (cyno) GPRC5D (run with 6E97(hz)). As for the experimental part:
as §1, §3

T3 sequence (Q9NQ84 24-441): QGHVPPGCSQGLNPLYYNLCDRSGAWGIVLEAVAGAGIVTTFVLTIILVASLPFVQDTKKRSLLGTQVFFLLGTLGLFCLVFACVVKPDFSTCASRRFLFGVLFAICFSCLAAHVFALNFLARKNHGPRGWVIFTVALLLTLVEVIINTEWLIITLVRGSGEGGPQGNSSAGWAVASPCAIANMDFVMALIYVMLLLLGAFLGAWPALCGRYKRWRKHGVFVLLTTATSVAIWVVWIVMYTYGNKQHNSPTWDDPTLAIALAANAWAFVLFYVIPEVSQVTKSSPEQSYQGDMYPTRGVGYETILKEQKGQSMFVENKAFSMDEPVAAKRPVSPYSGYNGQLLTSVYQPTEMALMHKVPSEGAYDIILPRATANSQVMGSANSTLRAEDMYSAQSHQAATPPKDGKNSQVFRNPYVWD
T1 sequence (Q9NZH0 29-403): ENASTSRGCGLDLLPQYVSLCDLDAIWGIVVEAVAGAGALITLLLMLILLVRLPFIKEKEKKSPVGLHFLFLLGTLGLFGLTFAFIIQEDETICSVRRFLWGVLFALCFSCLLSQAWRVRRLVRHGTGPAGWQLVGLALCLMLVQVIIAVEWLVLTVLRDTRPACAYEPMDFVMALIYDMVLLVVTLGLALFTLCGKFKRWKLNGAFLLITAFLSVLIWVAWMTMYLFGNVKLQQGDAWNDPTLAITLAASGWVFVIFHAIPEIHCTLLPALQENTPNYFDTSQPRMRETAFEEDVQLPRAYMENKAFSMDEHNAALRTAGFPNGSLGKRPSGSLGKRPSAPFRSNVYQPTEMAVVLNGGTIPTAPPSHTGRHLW

B1: GPRC5D×CD3 JNJ (anti-hGPRC5D×CD3 bispecific antibody built with the GPRC5D-targeting and CD3-targeting domains of Talquetamab, JNJ-64407564) (bispecific antibody, human IgG1, kappa, lambda)
heavy 1: QVQLVQSGAEVKKPGASVKVSCKASGYSFTGYTMNWVRQAPGQGLEWMGLINPYNSDTNYAQKLQGRVTMTTDTSTSTAYMELRSLRSDDTAVYYCARVALRVALDYWGQGTLVTVSSASTKGPSVFPLAPSSKSTSGGTAALGCLVKDYFPEPVTVSWNSGALTSGVHTFPAVLQSSGLYSLSSVVTVPSSSLGTQTYICNVNHKPSNTKVDKRVEPKSCDKTHTCPPCPAPPAAGPSVFLFPPKPKDTLMISRTPEVTCVVVDVSHEDPEVKFNWYVDGVEVHNAKTKPREEQYNSTYRVVSVLTVLHQDWLNGKEYKCKVSNKALAAPIEKTISKAKGQPREPQVYTLPPCREEMTKNQVSLWCLVKGFYPSDIAVEWESNGQPENNYKTTPPVLDSDGSFLLYSKLTVDKSRWQQGNVFSCSVMHEALHNHYTQKSLSLSPGK
heavy 2: QTVVTQEPSLTVSPGGTVTLTCRSSTGAVTTSNYANWVQQKPGQAPRGLIGGTNKRAPGTPARFSGSLLGGKAALTLSGVQPEDEAEYYCALWYSNLWVFGGGTKLTVLSSASTKGPSVFPLAPSSKSTSGGTAALGCLVEDYFPEPVTVSWNSGALTSGVHTFPAVLQSSGLYSLSSVVTVPSSSLGTQTYICNVNHKPSNTKVDDRVEPKSCDKTHTCPPCPAPPAAGPSVFLFPPKPKDTLMISRTPEVTCVVVDVSHEDPEVKFNWYVDGVEVHNAKTKPREEQYNSTYRVVSVLTVLHQDWLNGKEYKCKVSNKALAAPIEKTISKAKGQPREPQVCTLPPSREEMTKNQVSLSCAVKGFYPSDIAVEWESNGQPENNYKTTPPVLDSDGSFFLVSRLTVDKSRWQQGNVFSCSVMHEALHNHYTQKSLSLSPGK
light 1: DIQMTQSPSSLSASVGDRVTITCKASQNVATHVGWYQQKPGKAPKRLIYSASYRYSGVPSRFSGSGSGTEFTLTISNLQPEDFATYYCQQYNRYPYTFGQGTKLEIKRTVAAPSVFIFPPSDEQLKSGTASVVCLLNNFYPREAKVQWKVDNALQSGNSQESVTEQDSKDSTYSLSSTLTLSKADYEKHKVYACEVTHQGLSSPVTKSFNRGEC
light 2: EVQLVESGGGLVQPGGSLRLSCAASGFTFNTYAMNWVRQAPGKGLEWVARIRSKYNNYATYYAASVKGRFTISRDDSKNSLYLQMNSLKTEDTAVYYCARHGNFGNSYVSWFAYWGQGTLVTVSSGQPKAAPSVTLFPPSSEELQANKATLVCLISDFYPGAVTVAWKADSSPVKAGVETTTPSKQSNNKYAASSYLSLTPEQWKSHRSYSCQVTHEGSTVEKTVAPTECS
notes: used as the positive control antibody throughout; also called Positive control antibody
For the molecule B1, the FACS result in experiment [1] turned out to be 8.44; in experiment [3], 8.72. Further, the half-maximal effective concentration (EC50) in experiment [2] was determined as 13.1 µg/mL; in experiment [4], 4.39 µg/mL; in experiment [5], 14 µg/mL; in experiment [6] it was 3.27 µg/mL.
